Test results as given in patent US8859492.
Where no end group is shown, it is not given here. [ ]: non-standard residue; d: D form. Cha = N[C@@H](CC1CCCCC1)C(=O)O

Experiments:
[1] = molecular target: Recombinant human somatic ACE (sACE-1: Leu30-Leu1261, with C-terminal His tag) (human) (UniProt P12821); test: cell-based or functional assay
[2] = molecular target: HCV protease (hepatitis C virus); test: affinity of metallopeptide for HCV protease; method not described
[3] = molecular target: Recombinant human somatic ACE (sACE-1: Leu30-Leu1261, with C-terminal His tag) (human) (UniProt P12821); test: affinity based on the IC50 of sACE-1 inhibition (fluorogenic substrate cleavage)

Sequence of Recombinant human somatic ACE (sACE-1: Leu30-Leu1261, with C-terminal His tag) (human) (P12821 30-1261 limits assumed): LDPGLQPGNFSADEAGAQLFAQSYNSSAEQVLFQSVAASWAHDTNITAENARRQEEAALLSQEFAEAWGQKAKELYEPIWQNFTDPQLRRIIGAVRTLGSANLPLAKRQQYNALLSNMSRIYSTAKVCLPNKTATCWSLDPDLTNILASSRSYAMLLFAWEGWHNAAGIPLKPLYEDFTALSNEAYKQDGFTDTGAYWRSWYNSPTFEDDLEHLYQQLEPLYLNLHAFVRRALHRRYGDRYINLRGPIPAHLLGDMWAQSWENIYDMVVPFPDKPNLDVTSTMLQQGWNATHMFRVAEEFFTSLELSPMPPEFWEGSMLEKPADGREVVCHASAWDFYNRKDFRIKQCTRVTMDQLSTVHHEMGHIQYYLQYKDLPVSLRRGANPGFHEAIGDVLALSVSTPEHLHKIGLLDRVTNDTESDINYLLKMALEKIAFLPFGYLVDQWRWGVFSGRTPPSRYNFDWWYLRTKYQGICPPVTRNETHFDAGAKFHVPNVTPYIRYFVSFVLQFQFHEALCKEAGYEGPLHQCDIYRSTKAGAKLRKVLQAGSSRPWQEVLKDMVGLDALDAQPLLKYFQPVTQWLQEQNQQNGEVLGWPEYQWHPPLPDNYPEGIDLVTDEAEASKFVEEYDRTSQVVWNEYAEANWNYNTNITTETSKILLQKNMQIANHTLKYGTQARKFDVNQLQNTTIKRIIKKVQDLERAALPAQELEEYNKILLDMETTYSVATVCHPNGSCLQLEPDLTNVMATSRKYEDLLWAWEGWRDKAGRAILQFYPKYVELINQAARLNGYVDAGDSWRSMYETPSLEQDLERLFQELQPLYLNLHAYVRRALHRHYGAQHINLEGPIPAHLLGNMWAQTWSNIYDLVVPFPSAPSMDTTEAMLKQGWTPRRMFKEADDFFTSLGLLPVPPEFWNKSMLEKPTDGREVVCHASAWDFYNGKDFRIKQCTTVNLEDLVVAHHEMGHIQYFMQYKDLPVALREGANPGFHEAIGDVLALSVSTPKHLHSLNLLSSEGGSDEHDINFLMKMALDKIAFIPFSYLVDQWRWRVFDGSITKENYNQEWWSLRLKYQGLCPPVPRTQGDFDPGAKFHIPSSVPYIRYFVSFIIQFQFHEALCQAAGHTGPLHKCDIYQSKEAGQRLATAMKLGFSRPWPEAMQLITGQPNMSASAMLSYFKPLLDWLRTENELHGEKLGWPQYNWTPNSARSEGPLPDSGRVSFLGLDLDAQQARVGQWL

In the case of “Ni-GGH (M-chelate without lisinopril) (peptide)”, the second order rate constant for inactivation of sACE-1, ascorbate [1] is reported as less than 83.3 M⁻¹ s⁻¹.

For GGHD[dE]LI[Cha]CP[Cha]DL, the affinity [2] was 0.01 µM.

For [Cu-GGH]^1- (peptide), the IC50 of sACE-1 inhibition (cleavage of fluorogenic substrate) [1] was 17000 nM, the second order rate constant for inactivation of sACE-1, H2O2 [1] was less than 33.3 M⁻¹ s⁻¹ and the second order rate constant for inactivation of sACE-1, ascorbate [1] was less than 16.7 M⁻¹ s⁻¹. For the same substance, the second order rate constant for inactivation of sACE-1, ascorbate + H2O2 [1] was 167 M⁻¹ s⁻¹.

“Co-GGH (M-chelate without lisinopril) (peptide)” was tested, and the second order rate constant for inactivation of sACE-1, ascorbate + H2O2 [1] was less than 333 M⁻¹ s⁻¹.

Substance Cu-GGH-lisinopril (peptide) has a Ka [3] of 680000 M⁻¹, an IC50 of sACE-1 inhibition (cleavage of fluorogenic substrate) [1] of 1470 nM and a second order rate constant for inactivation of sACE-1, H2O2 [1] of 467 M⁻¹ s⁻¹. The second order rate constant for inactivation of sACE-1, ascorbate [1] was 1700 M⁻¹ s⁻¹ and the second order rate constant for inactivation of sACE-1, ascorbate + H2O2 [1] was 2530 M⁻¹ s⁻¹.

For Ni-GGH-lisinopril (peptide), the Ka [3] was 6.67e+06 M⁻¹, the IC50 of sACE-1 inhibition (cleavage of fluorogenic substrate) [1] was 150 nM and the second order rate constant for inactivation of sACE-1, ascorbate [1] was 500 M⁻¹ s⁻¹.

With Co-GGH-lisinopril (peptide) the Ka [3] was 1.11e+07 M⁻¹, the IC50 of sACE-1 inhibition (cleavage of fluorogenic substrate) [1] was 90 nM and the second order rate constant for inactivation of sACE-1, ascorbate + H2O2 [1] was 1170 M⁻¹ s⁻¹.

With GGHDEMEEC (SEQ ID NO: 71) the affinity [2] was 48 µM.
